Data taken from patent US20110129459A1 (Chugai, published 2011).
Positions count from the first letter of the chain named. Read-outs that look alike come from different tables or passages of the source. Blank lines part the entries; values can stand above or below the binder they belong to.

Columns and labels:
[1] = target: T1, rhNR10 (recombinant human NR10) (human, UniProt Q8NI17 20-519, limits assumed); assay: SPR, Biacore T100; antibody captured on Protein A, rhNR10 as analyte
T1 construct: also called IL-31 receptor; IL31RA
T1 sequence: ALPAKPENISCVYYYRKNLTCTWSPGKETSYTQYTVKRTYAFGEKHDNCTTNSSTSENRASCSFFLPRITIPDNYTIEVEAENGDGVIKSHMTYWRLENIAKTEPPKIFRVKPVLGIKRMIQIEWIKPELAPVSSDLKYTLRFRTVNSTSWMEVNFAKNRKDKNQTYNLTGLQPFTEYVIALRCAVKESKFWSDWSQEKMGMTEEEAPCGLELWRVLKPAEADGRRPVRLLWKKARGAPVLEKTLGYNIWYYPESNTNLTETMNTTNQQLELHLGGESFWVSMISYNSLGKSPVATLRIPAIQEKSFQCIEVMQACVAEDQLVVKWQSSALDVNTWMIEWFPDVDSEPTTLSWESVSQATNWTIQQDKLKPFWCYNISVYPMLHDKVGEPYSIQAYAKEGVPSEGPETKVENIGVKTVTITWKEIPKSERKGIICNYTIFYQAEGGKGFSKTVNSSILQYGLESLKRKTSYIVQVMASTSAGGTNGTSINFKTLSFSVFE
Method: (§1) Kinetic analysis of the antigen-antibody reaction was carried out using Biacore T100 (GE Healthcare Biosciences). The antigen-antibody interaction was measured by immobilizing rec-Protein A (hereinafter Protein A) (ZYMED) onto a sensor chip, capturing an antibody on the immobilized Protein A, and then reacting the antigen as an analyte. Various concentrations of rhNR10 were used as the antigen. The kinetic parameters, association rate constant kₐ (1/Ms) and dissociation rate constant kd (1/s), were calculated from the sensorgrams obtained by the measurement. Then, KD (M) was determined based on the rate constants. Each parameter was determined using Biacore T100 Evaluation Software version 1.1 (GE Healthcare Biosciences).
(§2) The running buffer used was HBS-EP+. Each antibody was prepared at 0.25 μg/ml, or prepared so that about 100 RU would bind to Protein A. rhNR10 used as an analyte was prepared at 0, 38.5, 77.0, and 154 nM, or at 0, 19.25, and 77.01 nM using HBS-EP+. In the measurement, first, the antibody solution was captured on Protein A, and an analyte solution was reacted at a flow rate of 20 μL/min for three minutes. Then, the solution was switched to HBS-EP+, and the dissociation phase was measured for five minutes. After measurement of the dissociation phase, the sensor chip was regenerated by washing with 10 mM glycine-HCl (pH 1.5). The obtained sensorgrams were kinetically analyzed using the Biacore-specific data analysis software, Biacore T100 Evaluation Software Version 1.1.

[2] = target: T1, rhNR10 (recombinant human NR10); assay: as above; remark: listed apart in the source
Method: as §1, §2

[3] = target: T2, cytoplasmic domain-lacking human NR10 on CHO cells (hNR10-expressing CHO cells) (human, UniProt Q8NI17 20-553); assay: FMAT competition on hNR10-expressing CHO cells: antibody titrated against FMAT Blue-labeled hIL-31; FL1 = cell-bound labeled hIL-31; mean±S.D. (n=3)
T2 construct: also called NR10-expressing cells
T2 sequence: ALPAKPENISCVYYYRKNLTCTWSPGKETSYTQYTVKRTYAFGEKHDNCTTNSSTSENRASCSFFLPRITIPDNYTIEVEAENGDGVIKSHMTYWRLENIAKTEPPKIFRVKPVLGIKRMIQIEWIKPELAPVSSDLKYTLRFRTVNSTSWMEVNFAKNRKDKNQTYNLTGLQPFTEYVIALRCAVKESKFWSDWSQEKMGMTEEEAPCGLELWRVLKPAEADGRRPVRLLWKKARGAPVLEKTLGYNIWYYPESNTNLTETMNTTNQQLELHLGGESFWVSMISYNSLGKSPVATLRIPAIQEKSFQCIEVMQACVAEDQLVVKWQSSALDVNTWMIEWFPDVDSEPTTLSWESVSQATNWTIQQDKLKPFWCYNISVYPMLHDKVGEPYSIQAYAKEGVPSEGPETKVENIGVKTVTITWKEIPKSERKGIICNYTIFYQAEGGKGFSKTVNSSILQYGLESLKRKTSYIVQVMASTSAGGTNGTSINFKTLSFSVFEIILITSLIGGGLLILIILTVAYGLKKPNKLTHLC
Method: Antibodies were assessed for the activity of inhibiting the IL-31/NR10 binding by using hNR10-expressing CHO cells as described below. The chimeric NS22 antibody and NS22_H0L0 (H chain, H0-SKSC/SEQ ID NO: 54; L chain, L0/SEQ ID NO: 56) were diluted at an appropriate concentration using Assay buffer (10 mM HEPES, 140 mM NaCl, 2.5 mM CaCl₂, 3 mM MgCl₂, 2% FBS, 0.01% NaN₃, pH7.4), and further eight serial dilutions were prepared at a common dilution ration of 2. The dilutions were added at 40 μl/well to plates (96-Well FMAT Plates, Applied Biosystems). Then, FMAT Blue-labeled hIL-31 was diluted 400 times with Assay buffer, and added at 20 μl/well. Finally, a cell suspension adjusted to 2.5×10⁵ cells/ml using Assay buffer was added at 40 μl/well (final 1×10⁴ cells/well). Two hours after addition of cells, the fluorescence (FL1) was measured using the 8200 Cellular Detection System (Applied Biosystems).
Each variant was tested for the activity of inhibiting the hIL-31/hNR10 binding by using FMAT. The test was carried out according to the method as described in Example 4.

binding result [3]: binds
B3: Hp1 variant of H0L0 (antibody, V domains shown)
VH: QVQLVQSGAEVKKPGASVKVSCKASGYTFTGYIMNWVRQAPGQGLEWMGLINPYNGGTSYNQKFQGRVTITADESTSTAYMELSSLRSEDTAVYYCARDGYDDGPYTMDYWGQGTLVTVSS
VL: DIQMTQSPSSLSASVGDRVTITCRTSENIYSFLAWYQQKPGKAPKLLIYNAKTLAKGVPSRFSGSGSGTDFTLTISSLQPEDFATYYCQHHYESPLTFGGGTKVEIK

Kd [1]: 2.1 nM
koff [1]: 0.00056 s⁻¹
kon [1]: 260000 M⁻¹ s⁻¹
B5: Ha111L0 (Ha111-SKSC / L0) (antibody, V domains shown)
VH: B3 VH with M34L, Q65K
VL: DIQMTQSPSSLSASVGDRVTITCRTSENIYSFLAWYQQKPGKAPKLLIYNAKTLAKGVPSRFSGSGSGTDFTLTISSLQPEDFATYYCQHHYESPLTFGGGTKVEIKR

Kd [1]: 3 nM
koff [1]: 0.00096 s⁻¹
kon [1]: 320000 M⁻¹ s⁻¹
B6: Ha219L0 (Ha219-SKSC / L0) (antibody, V domains shown)
VH: B3 VH with Q62P, Q65K
VL: B5 VL

Kd [2]: 3.5 nM
koff [2]: 0.0013 s⁻¹
kon [2]: 360000 M⁻¹ s⁻¹
B11: H97L50 (H97-M58 / L50) (antibody, V domains shown)
VH: B3 VH with K63Q, G66D, M108L, D109E, Y110T
VL: B5 VL with R24Q, T25A, N28D, K52Q, L54E, K56Q, E93D

Kd [1]: 1.5 nM
koff [1]: 0.00031 s⁻¹
kon [1]: 200000 M⁻¹ s⁻¹
B12: Ha101L0 (Ha101-SKSC / L0) (antibody, V domains shown)
VH: B3 VH with I33V, Q65K
VL: B5 VL

binding result [3]: binds
B13: Lp5 variant of H0L0 (antibody, V domains shown)
VH: B3 VH with Q65K
VL: B5 VL with K56Q
notes: copies: 2 + 2

Kd [2]: 4.1 nM
koff [2]: 0.0013 s⁻¹
kon [2]: 310000 M⁻¹ s⁻¹
B16: H92L17 (H92-M58 / L17) (antibody, V domains shown)
VH: B3 VH with I33A, S59D, Q62P, K63Q, E74K, M108L, D109E, Y110T
VL: B5 VL with R24Q, T25A, N28D, L33V, K52Q, L54E, K56Q, E93D

Kd [1]: 2.4 nM
koff [1]: 0.00053 s⁻¹
kon [1]: 220000 M⁻¹ s⁻¹
B17: Ha103L0 (Ha103-SKSC / L0) (antibody, V domains shown)
VH: B3 VH with M34I, Q65K
VL: B5 VL

Kd [2]: 4.6 nM
koff [2]: 0.0013 s⁻¹
kon [2]: 290000 M⁻¹ s⁻¹
B19: H98L50 (H98-M58 / L50) (antibody, V domains shown)
VH: B3 VH with K63Q, G66D, E74K, M108L, D109E, Y110T
VL: B5 VL with R24Q, T25A, N28D, K52Q, L54E, K56Q, E93D

Kd [1]: 1.3 nM
koff [1]: 0.00048 s⁻¹
kon [1]: 370000 M⁻¹ s⁻¹
B23: Ha204L0 (Ha204-SKSC / L0) (antibody, V domains shown)
VH: B3 VH with S59D, Q65K
VL: B5 VL

binding result [3]: binds
B24: Lp6 variant of H0L0 (antibody, V domains shown)
VH: B3 VH with Q65K
VL: B5 VL with K56D
notes: copies: 2 + 2

The next lines start with the binder.

B1: H0La130 (H0-SKSC / La130) (antibody, V domains shown)
VH: B3 VH with Q65K
VL: B5 VL with S31R, L33V
Kd [1]: 1.5 nM
koff [1]: 0.0004 s⁻¹
kon [1]: 260000 M⁻¹ s⁻¹

B2: H30L17 (H30-M58 / L17) (antibody, V domains shown)
VH: B3 VH with S59D, Q62P, K63Q, G66D, M108L, D109E, Y110T
VL: B5 VL with R24Q, T25A, N28D, L33V, K52Q, L54E, K56Q, E93D
Kd [2]: 0.83 nM
koff [2]: 0.00057 s⁻¹
kon [2]: 680000 M⁻¹ s⁻¹

B4: H78L17 (H78-M58 / L17) (antibody, V domains shown)
VH: B3 VH with S59D, Q62P, K63Q, E74K, M108L, D109E, Y110T
VL: B5 VL with R24Q, T25A, N28D, L33V, K52Q, L54E, K56Q, E93D
Kd [2]: 1.1 nM
koff [2]: 0.0007 s⁻¹
kon [2]: 610000 M⁻¹ s⁻¹

B7: H71L17 (H71-M58 / L17) (antibody, V domains shown)
VH: B3 VH with I33A, S59D, Q62P, K63Q, M108L, D109E, Y110T
VL: B5 VL with R24Q, T25A, N28D, L33V, K52Q, L54E, K56Q, E93D
Kd [2]: 3.3 nM
koff [2]: 0.0012 s⁻¹
kon [2]: 370000 M⁻¹ s⁻¹

B8: H0La303 (H0-SKSC / La303) (antibody, V domains shown)
VH: B3 VH with Q65K
VL: B5 VL with E93D
notes: also called Ls303
Kd [1]: 2.1 nM
koff [1]: 0.00046 s⁻¹
kon [1]: 220000 M⁻¹ s⁻¹

B9: H0La134 (H0-SKSC / La134) (antibody, V domains shown)
VH: B3 VH with Q65K
VL: B5 VL with S31R
Kd [1]: 1.8 nM
koff [1]: 0.00044 s⁻¹
kon [1]: 250000 M⁻¹ s⁻¹

B10: H57L17 (H57-M58 / L17) (antibody, V domains shown)
VH: B3 VH with S59D, Q62P, K63Q, M108L, D109E, Y110T
VL: B5 VL with R24Q, T25A, N28D, L33V, K52Q, L54E, K56Q, E93D
Kd [2]: 0.77 nM
koff [2]: 0.00055 s⁻¹
kon [2]: 710000 M⁻¹ s⁻¹

B14: H34L17 (H34-M58 / L17) (antibody, V domains shown)
VH: B3 VH with I33A, S59D, Q62P, K63Q, G66D, M108L, D109E, Y110T
VL: B5 VL with R24Q, T25A, N28D, L33V, K52Q, L54E, K56Q, E93D
Kd [2]: 3.6 nM
koff [2]: 0.0012 s⁻¹
kon [2]: 340000 M⁻¹ s⁻¹

B15: H0La326 (H0-SKSC / La326) (antibody, name in Kabat numbering, V domains shown)
VH: B3 VH with Q65K
VL: B5 VL with T97F
Kd [1]: 3.7 nM
koff [1]: 0.00052 s⁻¹
kon [1]: 140000 M⁻¹ s⁻¹

B18: H28L17 (H28-M58 / L17) (antibody, V domains shown)
VH: B3 VH with I33V, M34L, S59D, Q62P, K63Q, G66D, M108L, D109E, Y110T
VL: B5 VL with R24Q, T25A, N28D, L33V, K52Q, L54E, K56Q, E93D
Kd [2]: 0.52 nM
koff [2]: 0.00033 s⁻¹
kon [2]: 640000 M⁻¹ s⁻¹

B20: H42L17 (H42-M58 / L17) (antibody, V domains shown)
VH: B3 VH with I33V, M34L, S59D, Q62P, K63Q, G66D, E74K, M108L, D109E, Y110T
VL: B5 VL with R24Q, T25A, N28D, L33V, K52Q, L54E, K56Q, E93D
Kd [2]: 0.65 nM
koff [2]: 0.00037 s⁻¹
kon [2]: 570000 M⁻¹ s⁻¹

B21: H46L17 (H46-M58 / L17) (antibody, V domains shown)
VH: B3 VH with I33A, S59D, Q62P, K63Q, G66D, E74K, M108L, D109E, Y110T
VL: B5 VL with R24Q, T25A, N28D, L33V, K52Q, L54E, K56Q, E93D
Kd [2]: 4.6 nM
koff [2]: 0.0013 s⁻¹
kon [2]: 290000 M⁻¹ s⁻¹

B22: H0La328 (H0-SKSC / La328) (antibody, V domains shown)
VH: B3 VH with Q65K
VL: B5 VL with S94D
Kd [1]: 2.9 nM
koff [1]: 0.00052 s⁻¹
kon [1]: 180000 M⁻¹ s⁻¹
